Experimental data as given in paper PMC9482650, “Quantitative fragmentomics allow affinity mapping of interactomes” (Nature Communications, 2022).

T1: ARHGAP21, Q5T5U3
T1 sequence (Q5T5U3 45-169, limits assumed, looked up): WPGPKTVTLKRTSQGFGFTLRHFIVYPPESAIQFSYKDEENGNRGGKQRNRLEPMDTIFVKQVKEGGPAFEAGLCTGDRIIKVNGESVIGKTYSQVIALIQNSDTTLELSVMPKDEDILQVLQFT

T2: FRMPD1, Q5SYB0
T2 sequence (Q5SYB0 52-145, limits assumed, looked up): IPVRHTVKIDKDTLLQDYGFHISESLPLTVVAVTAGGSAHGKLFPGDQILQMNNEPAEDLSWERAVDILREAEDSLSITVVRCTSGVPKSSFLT

T3: GRIP1_5, Q9Y3R0
T3 sequence (Q9Y3R0 568-668, limits assumed, looked up): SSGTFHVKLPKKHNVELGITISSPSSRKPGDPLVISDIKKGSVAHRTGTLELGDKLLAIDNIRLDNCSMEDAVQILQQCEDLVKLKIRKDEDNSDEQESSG

T4: GRIP1_7, Q9Y3R0
T4 sequence (Q9Y3R0 999-1096, limits assumed, looked up): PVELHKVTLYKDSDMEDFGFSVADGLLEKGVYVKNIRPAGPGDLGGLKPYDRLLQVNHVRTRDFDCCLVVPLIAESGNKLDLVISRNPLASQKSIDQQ

T5: LIN7A, O14910
T5 sequence (O14910 103-200, limits assumed, looked up): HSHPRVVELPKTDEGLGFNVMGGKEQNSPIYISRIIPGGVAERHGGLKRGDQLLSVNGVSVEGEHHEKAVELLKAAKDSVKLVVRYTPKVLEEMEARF

T6: MPP6, Q9NZW5
T6 sequence (Q9NZW5 125-219, limits assumed, looked up): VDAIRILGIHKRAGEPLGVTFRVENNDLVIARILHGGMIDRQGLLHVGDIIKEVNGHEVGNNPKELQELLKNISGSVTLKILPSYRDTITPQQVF

T7: MPP7, Q5T2T1
T7 sequence (Q5T2T1 134-230, limits assumed, looked up): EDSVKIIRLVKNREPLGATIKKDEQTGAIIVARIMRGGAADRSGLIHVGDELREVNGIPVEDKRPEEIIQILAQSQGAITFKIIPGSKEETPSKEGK

T8: PCLO, Q9Y6V0
T8 sequence (Q9Y6V0 4491-4600, limits assumed, looked up): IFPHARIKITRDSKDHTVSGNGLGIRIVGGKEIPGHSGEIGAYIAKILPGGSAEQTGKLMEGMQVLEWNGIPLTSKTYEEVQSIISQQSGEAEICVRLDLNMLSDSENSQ

T9: PDZRN3_1, Q9UPQ7
T9 sequence (Q9UPQ7 244-349, limits assumed, looked up): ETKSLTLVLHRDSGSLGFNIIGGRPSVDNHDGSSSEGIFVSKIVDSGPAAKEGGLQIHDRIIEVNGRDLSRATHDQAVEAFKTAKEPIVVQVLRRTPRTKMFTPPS

T10: PTPN13_1, Q12923
T10 sequence (Q12923 1088-1188, limits assumed, looked up): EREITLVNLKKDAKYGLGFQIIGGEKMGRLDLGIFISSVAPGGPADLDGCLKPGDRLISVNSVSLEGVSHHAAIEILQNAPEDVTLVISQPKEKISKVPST

T11: SYNJ2BP, P57105
T11 sequence (P57105 8-110, limits assumed, looked up): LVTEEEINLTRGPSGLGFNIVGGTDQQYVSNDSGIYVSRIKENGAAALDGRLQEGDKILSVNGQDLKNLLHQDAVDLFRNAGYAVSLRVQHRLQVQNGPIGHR


Legend:
Experiment in all cases: holdup assay
Set-up in all cases: key: below the threshold = too weak to quantify, mostly under pKd 3.1 to 4
Details in all cases: plain residues with an end cap or a label only (N-terminal biotin on a linker: ado-ado)
ARHGAP21, Q5T5U3 = biological target: T1, ARHGAP21, Q5T5U3
DLG4_1, P78352 = biological target: DLG4_1, P78352
FRMPD1, Q5SYB0 = biological target: T2, FRMPD1, Q5SYB0
FRMPD4, Q14CM0 = biological target: FRMPD4, Q14CM0
GRASP, Q7Z6J2 = biological target: GRASP, Q7Z6J2
GRID2IP_1, A4D2P6 = biological target: GRID2IP_1, A4D2P6
GRIP1_5, Q9Y3R0 = biological target: T3, GRIP1_5, Q9Y3R0
GRIP1_7, Q9Y3R0 = biological target: T4, GRIP1_7, Q9Y3R0
GRIP2_3, Q9C0E4 = biological target: GRIP2_3, Q9C0E4
GRIP2_6, Q9C0E4 = biological target: GRIP2_6, Q9C0E4
HTRA1, Q92743 = biological target: HTRA1, Q92743
Inadl_3, Q8NI35 = biological target: Inadl_3, Q8NI35
Inadl_4, Q8NI35 = biological target: Inadl_4, Q8NI35
LIN7A, O14910 = biological target: T5, LIN7A, O14910
MAGI1_1, Q96QZ7 = biological target: MAGI1_1, Q96QZ7
MAGI1_2, Q96QZ7 = biological target: MAGI1_2, Q96QZ7
MAGI2_3, Q86UL8 = biological target: MAGI2_3, Q86UL8
MAGI2_5, Q86UL8 = biological target: MAGI2_5, Q86UL8
MAST2, Q6P0Q8 = biological target: MAST2, Q6P0Q8
MPP6, Q9NZW5 = biological target: T6, MPP6, Q9NZW5
MPP7, Q5T2T1 = biological target: T7, MPP7, Q5T2T1
NHERF4_2, Q86UT5 = biological target: NHERF4_2, Q86UT5
PCLO, Q9Y6V0 = biological target: T8, PCLO, Q9Y6V0
PDZRN3_1, Q9UPQ7 = biological target: T9, PDZRN3_1, Q9UPQ7
PTPN13_1, Q12923 = biological target: T10, PTPN13_1, Q12923
SCRIB_2, Q14160 = biological target: SCRIB_2, Q14160
SYNJ2BP, P57105 = biological target: T11, SYNJ2BP, P57105

Inadl_3, Q8NI35, sequence (Q8NI35 359-469): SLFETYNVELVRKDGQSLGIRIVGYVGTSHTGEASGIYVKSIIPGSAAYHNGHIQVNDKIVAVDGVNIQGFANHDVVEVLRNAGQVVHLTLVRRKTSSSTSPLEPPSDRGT
GRIP2_3, Q9C0E4, sequence (Q9C0E4 238-339): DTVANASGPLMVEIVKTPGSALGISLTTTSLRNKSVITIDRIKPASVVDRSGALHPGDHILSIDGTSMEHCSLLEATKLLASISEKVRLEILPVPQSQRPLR
GRASP, Q7Z6J2, sequence (Q7Z6J2 96-193): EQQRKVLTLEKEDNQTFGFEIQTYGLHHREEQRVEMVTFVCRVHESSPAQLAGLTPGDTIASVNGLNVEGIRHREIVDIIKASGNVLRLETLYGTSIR
MAGI1_2, Q96QZ7, sequence (Q96QZ7 456-580): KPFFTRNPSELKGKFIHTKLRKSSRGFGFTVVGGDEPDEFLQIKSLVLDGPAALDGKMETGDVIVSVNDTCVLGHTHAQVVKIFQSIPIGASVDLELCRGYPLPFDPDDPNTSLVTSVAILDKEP
FRMPD4, Q14CM0, sequence (Q14CM0 67-160): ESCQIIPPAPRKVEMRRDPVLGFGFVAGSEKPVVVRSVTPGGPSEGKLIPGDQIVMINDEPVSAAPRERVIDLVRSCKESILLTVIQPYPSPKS
Inadl_4, Q8NI35, sequence (Q8NI35 547-651): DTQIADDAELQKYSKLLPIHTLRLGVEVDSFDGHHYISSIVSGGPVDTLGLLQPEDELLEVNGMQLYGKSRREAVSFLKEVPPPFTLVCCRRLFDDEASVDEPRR
MAGI1_1, Q96QZ7, sequence (Q96QZ7 1-106): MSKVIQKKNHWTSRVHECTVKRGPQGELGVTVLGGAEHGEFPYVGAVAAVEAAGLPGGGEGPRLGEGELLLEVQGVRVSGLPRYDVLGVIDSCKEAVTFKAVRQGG
MAST2, Q6P0Q8, sequence (Q6P0Q8 1099-1202): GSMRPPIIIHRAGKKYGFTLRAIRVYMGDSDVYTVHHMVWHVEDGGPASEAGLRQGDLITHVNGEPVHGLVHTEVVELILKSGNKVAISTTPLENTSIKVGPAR
GRID2IP_1, A4D2P6, sequence (A4D2P6 1-87): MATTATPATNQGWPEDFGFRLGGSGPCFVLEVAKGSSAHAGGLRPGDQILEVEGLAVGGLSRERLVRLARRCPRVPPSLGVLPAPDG
MAGI2_3, Q86UL8, sequence (Q86UL8 600-682): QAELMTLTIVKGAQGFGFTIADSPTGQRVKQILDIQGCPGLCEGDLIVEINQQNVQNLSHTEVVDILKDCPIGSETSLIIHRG
SCRIB_2, Q14160, sequence (Q14160 857-960): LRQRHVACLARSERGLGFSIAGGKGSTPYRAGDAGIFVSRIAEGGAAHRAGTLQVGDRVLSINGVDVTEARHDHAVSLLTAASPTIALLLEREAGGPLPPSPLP
GRIP2_6, Q9C0E4, sequence (Q9C0E4 648-740): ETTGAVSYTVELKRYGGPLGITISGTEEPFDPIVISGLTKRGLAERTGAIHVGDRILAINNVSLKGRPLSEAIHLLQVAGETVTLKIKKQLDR
HTRA1, Q92743, sequence (Q92743 360-477): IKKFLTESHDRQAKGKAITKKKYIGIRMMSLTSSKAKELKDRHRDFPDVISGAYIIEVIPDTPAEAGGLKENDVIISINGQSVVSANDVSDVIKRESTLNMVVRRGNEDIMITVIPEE
DLG4_1, P78352, sequence (P78352 62-152): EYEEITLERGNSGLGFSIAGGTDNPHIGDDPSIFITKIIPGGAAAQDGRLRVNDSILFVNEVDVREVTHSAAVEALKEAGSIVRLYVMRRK
MAGI2_5, Q86UL8, sequence (Q86UL8 915-1017): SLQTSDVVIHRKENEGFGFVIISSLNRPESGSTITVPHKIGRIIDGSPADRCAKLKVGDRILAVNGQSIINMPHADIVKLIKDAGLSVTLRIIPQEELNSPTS
NHERF4_2, Q86UT5, sequence (Q86UT5 220-308): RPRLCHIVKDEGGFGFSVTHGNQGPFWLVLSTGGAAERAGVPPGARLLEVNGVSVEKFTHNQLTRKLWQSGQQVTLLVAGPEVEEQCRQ

Binder	pKd (ARHGAP21, Q5T5U3)	pKd (DLG4_1, P78352)	pKd (FRMPD1, Q5SYB0)	pKd (FRMPD4, Q14CM0)	pKd (GRASP, Q7Z6J2)	pKd (GRID2IP_1, A4D2P6)	pKd (GRIP1_5, Q9Y3R0)	pKd (GRIP1_7, Q9Y3R0)	pKd (GRIP2_3, Q9C0E4)	pKd (GRIP2_6, Q9C0E4)	pKd (HTRA1, Q92743)	pKd (Inadl_3, Q8NI35)	pKd (Inadl_4, Q8NI35)	pKd (LIN7A, O14910)	pKd (MAGI1_1, Q96QZ7)	pKd (MAGI1_2, Q96QZ7)	pKd (MAGI2_3, Q86UL8)	pKd (MAGI2_5, Q86UL8)	pKd (MAST2, Q6P0Q8)	pKd (MPP6, Q9NZW5)	other results
SARSRLSSNL [HCN2, Q9UL51]	4.37	below the threshold	below the threshold	3.5	4	below the threshold	below the threshold	below the threshold	below the threshold	below the threshold	below the threshold	below the threshold	below the threshold	below the threshold	below the threshold	4.17	below the threshold	below the threshold	5.4	below the threshold	pKd (MPP7, Q5T2T1): below the threshold; pKd (NHERF4_2, Q86UT5): below the threshold; pKd (PCLO, Q9Y6V0): below the threshold; pKd (PDZRN3_1, Q9UPQ7): 3.63; pKd (PTPN13_1, Q12923): below the threshold; pKd (SCRIB_2, Q14160): below the threshold; pKd (SYNJ2BP, P57105): 3.76
EALLQMESVA [CAVIN3, Q969G5]	below the threshold	below the threshold	below the threshold	below the threshold	below the threshold	below the threshold	below the threshold	below the threshold	below the threshold	below the threshold	3.93	below the threshold	below the threshold	below the threshold	below the threshold	below the threshold	below the threshold	below the threshold	below the threshold	below the threshold	pKd (MPP7, Q5T2T1): below the threshold; pKd (NHERF4_2, Q86UT5): below the threshold; pKd (PCLO, Q9Y6V0): below the threshold; pKd (PDZRN3_1, Q9UPQ7): below the threshold; pKd (PTPN13_1, Q12923): below the threshold; pKd (SCRIB_2, Q14160): below the threshold; pKd (SYNJ2BP, P57105): 3.52
EKKTLIGIKL [GOT1L1, Q8NHS2]	4.09	below the threshold	below the threshold	4.47	below the threshold	below the threshold	below the threshold	below the threshold	below the threshold	below the threshold	4.48	below the threshold	below the threshold	below the threshold	below the threshold	below the threshold	below the threshold	below the threshold	4.66	below the threshold	pKd (MPP7, Q5T2T1): below the threshold; pKd (NHERF4_2, Q86UT5): below the threshold; pKd (PCLO, Q9Y6V0): below the threshold; pKd (PDZRN3_1, Q9UPQ7): below the threshold; pKd (PTPN13_1, Q12923): 3.63; pKd (SCRIB_2, Q14160): below the threshold; pKd (SYNJ2BP, P57105): below the threshold

The next lines start with results.

pKd (ARHGAP21, Q5T5U3)	pKd (DLG4_1, P78352)	pKd (FRMPD1, Q5SYB0)	pKd (FRMPD4, Q14CM0)	pKd (GRASP, Q7Z6J2)	pKd (GRID2IP_1, A4D2P6)	pKd (GRIP1_5, Q9Y3R0)	pKd (GRIP1_7, Q9Y3R0)	pKd (GRIP2_3, Q9C0E4)	pKd (GRIP2_6, Q9C0E4)	pKd (HTRA1, Q92743)	pKd (Inadl_3, Q8NI35)	pKd (Inadl_4, Q8NI35)	pKd (LIN7A, O14910)	pKd (MAGI1_1, Q96QZ7)	pKd (MAGI1_2, Q96QZ7)	pKd (MAGI2_3, Q86UL8)	pKd (MAGI2_5, Q86UL8)	pKd (MAST2, Q6P0Q8)	pKd (MPP6, Q9NZW5)	Binder	other results
3.74	below the threshold	below the threshold	3.7	3.94	below the threshold	below the threshold	below the threshold	below the threshold	below the threshold	below the threshold	below the threshold	below the threshold	below the threshold	below the threshold	below the threshold	below the threshold	below the threshold	5.48	3.49	IKAIVDLTGL [TRAF2, Q12933]	pKd (MPP7, Q5T2T1): below the threshold; pKd (NHERF4_2, Q86UT5): below the threshold; pKd (PCLO, Q9Y6V0): below the threshold; pKd (PDZRN3_1, Q9UPQ7): below the threshold; pKd (PTPN13_1, Q12923): below the threshold; pKd (SCRIB_2, Q14160): below the threshold; pKd (SYNJ2BP, P57105): below the threshold
4	3.72	below the threshold	4.57	3.58	below the threshold	3.53	below the threshold	below the threshold	below the threshold	4.27	below the threshold	below the threshold	3.56	3.58	below the threshold	3.55	below the threshold	5.62	3.93	PRAEAEDSFL [PDGFRB, P09619]	pKd (MPP7, Q5T2T1): below the threshold; pKd (NHERF4_2, Q86UT5): 3.66; pKd (PCLO, Q9Y6V0): below the threshold; pKd (PDZRN3_1, Q9UPQ7): 3.7; pKd (PTPN13_1, Q12923): below the threshold; pKd (SCRIB_2, Q14160): below the threshold; pKd (SYNJ2BP, P57105): 3.93
